Reference: patent US20260184814A1, “BROADLY NE[…] INFLUENZA NEURAMINIDASE” (priority 2022, published 2026)

Key:
[1] = tested on: NA-1: N1 from A/Vietnam/1203/2004
[2] = tested on: NA-5: N2 from A/Tanzania/205/2010
[3] = tested on: NA-16: N2 from A/Switzerland/8060/2017
[4] = tested on: NA-17: N2 from A/South_Australia/34/2019
[5] = tested on: NA-18: N2 from A/Hong-Kong/2671/2019
[6] = tested on: NA-19: N2 from A/Tanzania/205/2010 (82-469) S245NS247T
[7] = tested on: H7N3_NA_A_Ck_Ja_PAVX17170_2017
[8] = tested on: H5N6_NA_A_Hangzhou_01_2021
[9] = tested on: H7N7_NA_A_Ck_621572_03
[10] = tested on: H7N9_NA_A_Anhui_1_2013

B1: FNI9-v13.8 (protein)
heavy chain: QVQLVQSGAEVKEPGSSVTVSCKASGGSFNNQAISWVRQAPGQGLEWMGGIFPISGTPTSAQRFQGRVTFTADESTTTVYMDLSSLRSDDTAVYYCARAGSDYFNRDLGWENYYFASWGQGTLVTVSS
light chain: EIVMTQSPATLSVSPGERATLSCRASRSVSSNLAWYQQKPGQAPRLLIYDASTRATGFSARFAGSGSGTEFTLTISSLQSEDSAIYYCQQYNNWPPWTFGQGTKVEIK
MUNANA vs NA antigens | A [1]: 30.6 µg/mL
MUNANA vs NA antigens | B [2]: 158.3 µg/mL
MUNANA vs NA antigens | C [3]: 834.9 µg/mL
MUNANA vs NA antigens | D [4]: 80455 µg/mL
MUNANA vs NA antigens | E [5]: 832.7 µg/mL
MUNANA vs NA antigens | F [6]: 1073 µg/mL
ELLA vs pseudoviruses | H [7]: 11.57 µg/mL
ELLA vs pseudoviruses | J [8]: 2.03 µg/mL
ELLA vs pseudoviruses | K [9]: 53.76 µg/mL
ELLA vs pseudoviruses | M [10]: 1.701 µg/mL
